Data from the supplement of paper PMC9732359.
± gives the uncertainty stated by the source.

Experiment: protein stability index of a GFP-peptide fusion (yeast GPS) (PSI 1-4); higher = more stable; sorted into four equal gates, so the index is relative within each strain
Procedure, shortened: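 Tiled 17-residue peptides from yeast proteins were fused downstream of GFP on a plasmid that also expresses Cherry, and the pooled library was carried in yeast. Mid-log cultures grown in leucine-free medium were sorted into four equal gates by GFP/Cherry fluorescence ratio. Plasmids from each gate were PCR-amplified and Illumina-sequenced, and reads were assigned to strains by barcodes. Each peptide's protein stability index is the sum, over gates, of the gate's read frequency multiplied by its gate number.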

| Sequence | protein stability index (doa10∆) | protein stability index (pdr5∆) | protein stability index (san1∆) | protein stability index (ubr1∆) |
| --- | --- | --- | --- | --- |
| AKPDARTQAGDIVSIDI [MTW1] | 3.27 ± 0.13 | 3.53 ± 0.13 | 3.55 ± 0.091 | 3.64 ± 0.098 |
| IIKRSNGQSLSPVRSDS [YMR153W/NUP53] | 2.64 ± 0.093 | 2.87 ± 0.058 | 2.76 ± 0.064 | 2.81 ± 0.037 |
| QLQGPQWMNEMVERWAN [SOH1] | 3.28 ± 0.11 | 3.18 ± 0.091 | 2.93 ± 0.099 | 3.06 ± 0.084 |
| LENKENGLLNEISRLKT [SMC2] | 3.31 ± 0.18 | 3.29 ± 0.079 | 3.15 ± 0.094 | 3.18 ± 0.13 |
| KIVVVRAEALNISGEFF [RPL16B] | 2.51 ± 0.12 | 2.79 ± 0.12 | 2.56 ± 0.14 | 3 ± 0.089 |
| RVRVTGGGHVSQVYAIR [RPS16A] | 2.61 ± 0.048 | 2.87 ± 0.045 | 2.93 ± 0.044 | 2.76 ± 0.031 |
| VMGTPLTNMMSPMGNAY [PGD1] | 2.03 ± 0.14 | 2.24 ± 0.21 | 1.62 ± 0.18 | – |
| KNDKLIKIEDFVDDMLR [SNF5] | 2.88 ± 0.063 | 2.73 ± 0.066 | 1.98 ± 0.078 | 2.68 ± 0.07 |
| AEKELEAEIECFDSTTG [RRP40] | 3.21 ± 0.17 | 3.06 ± 0.14 | 3.05 ± 0.1 | 2.66 ± 0.14 |
| TRMQRGHRADVGGQFSK [REC8] | 2.98 ± 0.13 | 3.32 ± 0.13 | 3.27 ± 0.074 | 3.39 ± 0.12 |
| APIQLKIDLLSGQFYFR [RGR1] | 2.63 ± 0.14 | 2.86 ± 0.16 | 2.15 ± 0.23 | 3.02 ± 0.082 |
| DENELKKSEEKLREKVN [MTW1] | 2.97 ± 0.27 | – | – | – |
| KIPEREEKSNEVKTPKI [SIR4] | – | 3.24 ± 0.21 | 3.46 ± 0.21 | 3.44 ± 0.15 |
| MDSKGKITIGIQRTTES [RGR1] | 3.44 ± 0.075 | 3.39 ± 0.066 | 3.33 ± 0.083 | 3.11 ± 0.075 |
| VDTGLQPQHPHYVSTSK [YLR018C/POM34] | 2.38 ± 0.05 | 2.77 ± 0.045 | 2.88 ± 0.05 | 2.9 ± 0.042 |
| DSRKNREQSSNDSETHT [BRN1] | 3.68 ± 0.17 | 3.34 ± 0.19 | 3.34 ± 0.11 | 3.52 ± 0.14 |
| NAEKTGKRQVLLRPSSK [RPS22B] | 3.14 ± 0.064 | 2.93 ± 0.055 | 3.24 ± 0.046 | 2.85 ± 0.038 |
| RADIVRNIILEARFDVL [ISW2] | 2.66 ± 0.088 | 2.25 ± 0.071 | 2.09 ± 0.11 | 2.51 ± 0.073 |
| QTDADRVKDPQWLIMLG [RIP1] | 3.19 ± 0.16 | 3.22 ± 0.11 | – | 2.6 ± 0.12 |
| ADLSSSEEEEDEEENGS [SSN2] | 3.36 ± 0.087 | 3.51 ± 0.12 | 3.59 ± 0.084 | 3.29 ± 0.064 |
| SYHLWPSFTDEQWITIE [PRP8] | 2.44 ± 0.089 | 2.66 ± 0.061 | 2.82 ± 0.09 | 2.57 ± 0.057 |
| IEELDNPMVPSSVNEDT [PRP8] | 3.26 ± 0.075 | 3.22 ± 0.065 | 3.33 ± 0.053 | 3.26 ± 0.049 |
| DGSQQNLQQDKTNFQDV [REC8] | 3.23 ± 0.071 | 3.38 ± 0.054 | 3.42 ± 0.068 | 3.3 ± 0.038 |
| SLKQYAGNLITTPEINN [SRP68] | 2.69 ± 0.073 | 2.88 ± 0.061 | 2.92 ± 0.076 | 2.31 ± 0.041 |
| KFGYILCVLDYDNIDIQ [RPB7] | 2.02 ± 0.1 | 2.08 ± 0.09 | 3.13 ± 0.11 | 2.04 ± 0.13 |
| DSGRGAPLAKVVFRDPY [RPL2A] | 3.06 ± 0.12 | 2.83 ± 0.13 | 3.03 ± 0.072 | 3.01 ± 0.067 |
| NSESTTQGGNVNLDNTA [RPT5] | 3.53 ± 0.11 | 3.41 ± 0.12 | 3.27 ± 0.09 | 3.11 ± 0.087 |

| Sequence | protein stability index (doa10∆) | protein stability index (pdr5∆) | protein stability index (san1∆) | protein stability index (ubr1∆) |
| --- | --- | --- | --- | --- |
| GKEFGDVSVKMGNTKVH [RRP45] | 1.38 ± 0.073 | 1.53 ± 0.083 | 2.25 ± 0.069 | 1.95 ± 0.1 |
| KNKGLVVSPYDYNHKRV [DIB1] | 3.18 ± 0.12 | 3.19 ± 0.11 | 3.02 ± 0.14 | 3.35 ± 0.17 |
| KKLDDKPSLVDVHLLES [RPN6] | 1.1 ± 0.12 | 1.29 ± 0.14 | – | – |
| ELKDLETQVEVEKNEIG [NNF1] | 3.05 ± 0.19 | 3.24 ± 0.11 | 2.97 ± 0.17 | 3.33 ± 0.13 |
| VLQEYRLTKQAFDWVLS [RPO21] | 2.59 ± 0.068 | 2.48 ± 0.069 | 2.89 ± 0.073 | 2.78 ± 0.046 |
| VFVGTIFAGAFVFQTVF [QCR9] | 1.82 ± 0.061 | 1.4 ± 0.049 | 1.23 ± 0.11 | 1.5 ± 0.043 |
| TLEDKFLLLAVNKYGLR [ISW2] | 2.31 ± 0.058 | 2.15 ± 0.058 | 1.9 ± 0.11 | 2.29 ± 0.049 |
| NTKVPVDIVNQWFLQYQ [YML103C/NUP188] | 1.78 ± 0.044 | 2.15 ± 0.038 | 1.85 ± 0.058 | 2.18 ± 0.034 |
| RNFDTHENYIQDDDFPL [MCD1] | 2.92 ± 0.06 | 2.8 ± 0.053 | 2.85 ± 0.048 | 2.91 ± 0.045 |
| ETISAIEHPMTSAIEVL [RPN1] | 1.49 ± 0.048 | 1.72 ± 0.042 | 1.76 ± 0.071 | 1.8 ± 0.044 |
| PANHLQSDFCLSWCPSR [YGL100W/SEH1] | 1.8 ± 0.18 | 2.05 ± 0.12 | 2.43 ± 0.16 | 2.4 ± 0.06 |
| QGLNILEWLENPSNTPD [FAS1] | 3.2 ± 0.12 | 3.06 ± 0.086 | 3.41 ± 0.051 | 3.14 ± 0.058 |
| LNKDSTNEFVGSPSLTS [NUT1] | 2.96 ± 0.062 | 3.18 ± 0.057 | 2.93 ± 0.044 | 2.9 ± 0.042 |
| IKELRSKGYPIQFLTIG [FAS1] | 1.87 ± 0.11 | 2.22 ± 0.068 | 1.43 ± 0.096 | 1.68 ± 0.071 |
| KTITLEVESSDTIDNVK [RPS31] | 2.88 ± 0.1 | 3.08 ± 0.062 | 2.77 ± 0.12 | 2.64 ± 0.086 |
| NDDKKTEPDKPAFSFNS [YJL041W/NSP1] | 2.89 ± 0.047 | 3.12 ± 0.039 | 3.07 ± 0.032 | 3.202 ± 0.029 |
| AKTFIDLESSSPELKAD [RPS7B] | 3.03 ± 0.086 | 3.4 ± 0.077 | 3.29 ± 0.085 | 3.17 ± 0.085 |
| APNNSNGGSEEEITCAL [MED7] | 3.45 ± 0.094 | 3.45 ± 0.13 | 3.42 ± 0.095 | 3.31 ± 0.085 |
| NSLKETLQDFHLIFSNA [SNF2] | 2.85 ± 0.072 | 2.82 ± 0.068 | 2.27 ± 0.13 | 2.44 ± 0.092 |
| EGQIIQRSNISTAIKSL [CDC53] | 1.55 ± 0.056 | 2.33 ± 0.099 | 2.46 ± 0.16 | 1.79 ± 0.079 |
| EYDTPALFFDPSLNPIP [PRP8] | 2.82 ± 0.056 | 2.87 ± 0.036 | 2.65 ± 0.048 | 2.69 ± 0.036 |
| PDLQFIVISLKNTMFEK [SMC1] | 2.83 ± 0.082 | 2.68 ± 0.071 | 3.01 ± 0.05 | 2.77 ± 0.045 |
| SDNSEEEEVDIDMDKLN [RRP43] | 3.25 ± 0.069 | 3.25 ± 0.071 | 3.4 ± 0.077 | 3.11 ± 0.05 |
| ISLRNNMFELAQQLVGV [SMC4] | 1.24 ± 0.089 | 1.74 ± 0.079 | 1.78 ± 0.093 | 1.87 ± 0.084 |
| DTKNSKSESPSEVLVDT [ISW2] | 3.11 ± 0.082 | 3.12 ± 0.07 | 2.97 ± 0.082 | 3.27 ± 0.063 |
| TLPSVGHTLINNYKDLL [RPP0] | – | 3.34 ± 0.21 | – | – |
| NANTVFSERAAMFAALQ [SWI1] | 2.31 ± 0.049 | 2.32 ± 0.043 | 2.4 ± 0.055 | 2.38 ± 0.032 |
